Source: paper PMC5551713 (The Journal of Cell Biology, 2017)

What was measured:
Assay in all cases: negative-stain TEM
[1] = molecular target: muscle PFK1 (PFKM), phosphofructokinase-1, 780-amino-acid isoform 2 (human) (UniProt P08237)
[2] = molecular target: PFKL-H199Y, point mutant at the sugar substrate binding site (human) (UniProt P17858)
[3] = molecular target: platelet PFK1 (PFKP), phosphofructokinase-1 (human) (UniProt Q01813)
negative-stain TEM = molecular target: the molecule itself

## muscle PFK1 (PFKM), phosphofructokinase-1, 780-amino-acid isoform 2 (from UniProt P08237-1 1-780) (enzyme)
[1]
  stoichiometry N: 4

## PFKL-H199Y, point mutant at the sugar substrate binding site (from UniProt P17858-1 1-780) (enzyme)
[2]
  stoichiometry N: 4

## platelet PFK1 (PFKP), phosphofructokinase-1 (from UniProt Q01813 1-784) (enzyme)
[3]
  stoichiometry N: 4

B1: liver PFK1 (PFKL), phosphofructokinase-1, 780-amino-acid isoform b (enzyme, human, UniProt P17858-1 1-780, looked up)
chain: MAAVDLEKLRASGAGKAIGVLTSGGDAQGMNAAVRAVTRMGIYVGAKVFLIYEGYEGLVEGGENIKQANWLSVSNIIQLGGTIIGSARCKAFTTREGRRAAAYNLVQHGITNLCVIGGDGSLTGANIFRSEWGSLLEELVAEGKISETTARTYSHLNIAGLVGSIDNDFCGTDMTIGTDSALHRIMEVIDAITTTAQSHQRTFVLEVMGRHCGYLALVSALASGADWLFIPEAPPEDGWENFMCERLGETRSRGSRLNIIIIAEGAIDRNGKPISSSYVKDLVVQRLGFDTRVTVLGHVQRGGTPSAFDRILSSKMGMEAVMALLEATPDTPACVVTLSGNQSVRLPLMECVQMTKEVQKAMDDKRFDEATQLRGGSFENNWNIYKLLAHQKPPKEKSNFSLAILNVGAPAAGMNAAVRSAVRTGISHGHTVYVVHDGFEGLAKGQVQEVGWHDVAGWLGRGGSMLGTKRTLPKGQLESIVENIRIYGIHALLVVGGFEAYEGVLQLVEARGRYEELCIVMCVIPATISNNVPGTDFSLGSDTAVNAAMESCDRIKQSASGTKRRVFIVETMGGYCGYLATVTGIAVGADAAYVFEDPFNIHDLKVNVEHMTEKMKTDIQRGLVLRNEKCHDYYTTEFLYNLYSSEGKGVFDCRTNVLGHLQQGGAPTPFDRNYGTKLGVKAMLWLSEKLREVYRKGRVFANAPDSACVIGLKKKAVAFSPVTELKKDTDFEHRMPREQWWLSLRLMLKMLAQYRISMAAYVSGELEHVTRRTLSMDKGF
negative-stain TEM
  stoichiometry N: 4
